Assay results: patent publication US20240059759A1

Key:
[1] = molecular target: SARS-CoV-2 RBD (SinoBiological, Cat. No. 40592-V02H) (SARS-CoV-2) (UniProt P0DTC2)
[2] = molecular target: SARS-CoV-2 RBD (SinoBiological, Cat. No. 40592-V02H) (SARS-CoV-2) (UniProt P0DTC2); assay: ELISA on RBD

VHH-72 D61S
fold enhanced binding [1]: 3 fold | EC50 [2]: 0.17 µg/mL
